This is an account of results in patent US20220332835A1 (SHANGHAITECH UNIVERSITY, published 2022).

For orientation: Kd means the concentration at which binding is half-saturated. Higher therefore signals lower affinity. Usually koff stands for a measure of how fast the partners let go of each other. In general, kon refers to the second-order rate constant of association. A low value points to slow association.

The target in experiment [1] is T1, human CXCR2 (hCXCR2) on cells (human, UniProt P25025 1-360).
T1 sequence (looked up): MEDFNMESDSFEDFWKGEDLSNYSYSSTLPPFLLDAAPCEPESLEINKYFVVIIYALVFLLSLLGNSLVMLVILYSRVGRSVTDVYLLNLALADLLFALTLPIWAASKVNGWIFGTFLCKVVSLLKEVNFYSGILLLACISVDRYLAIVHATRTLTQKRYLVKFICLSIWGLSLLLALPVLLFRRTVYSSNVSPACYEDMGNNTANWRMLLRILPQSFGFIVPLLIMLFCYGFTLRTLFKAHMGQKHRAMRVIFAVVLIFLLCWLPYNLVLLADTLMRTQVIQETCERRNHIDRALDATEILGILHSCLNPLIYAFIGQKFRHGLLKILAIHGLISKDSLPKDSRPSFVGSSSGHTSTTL
The experiment is described as follows: cell-based or functional assay.

The target in experiment [2] is T2, pepN48 (peptide of the 48 N-terminal extracellular amino acids of human CXCR2) (human, biotin labeled on its N-terminus (panning, ELISA, SPR)).
T2 construct: Synthetic; also called N-terminus of CXCR2
T2 peptide: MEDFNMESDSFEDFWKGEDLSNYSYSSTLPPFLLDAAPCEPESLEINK
Nature of the experiment: SPR, Biacore T200; biotinylated pepN48 on SA chip.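 Note: antibodies flowed in HBS-EP+ running buffer over the immobilized antigen at 0.5 to 10 nM, kinetic traces fitted to a protein-protein interaction model to derive constants.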 On the technique in general: In SPR one partner is held on a chip, and binding of the other changes the refractive index at the surface.

The next experiment deals with T3, pepN9-19 (human).
T3 construct: Synthetic peptide, residues 9-19 of human CXCR2 (DSFEDFWKGED); also called NT9-19; pep9-19
T3 peptide: DSFEDFWKGED
The experiment is described as follows: binding to truncated synthetic peptides (FIG. 9); method not named.

Another experiment concerns the target T4, pepN48Δ9-19 (human).
T4 construct: pepN48 with residues 9-19 deleted; also called pepN48 lacking 9-19 aa
T4 peptide: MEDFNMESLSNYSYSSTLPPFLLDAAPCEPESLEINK
Described as above.

A value given as a limit tells only on which side of the number the result lay.

In the case of “GROα (CXCL1) (from UniProt P09341 35-107) (ligand)”, in experiment [1], the β-arrestin recruitment, Tango assay, apparent EC50 stood at 5.3 nM.

Turning to “IL8 (from UniProt P10145 28-99) (ligand)”, in experiment [1], the β-arrestin recruitment, Tango assay, apparent EC50 came to 4.5 nM.

B1: abN48-1 (antibody, V domains shown)
VH: QVQLVQSGAEVKKPGSSVKVSCKASGGTLSSYAISWVRQAPGQGPEWMGWINPNSGGTNYAQKFQGRVTMTRDTSISTAYMELSRLRPDDTAVYYCASGFCTRTICFVYWGQGTLVTVSS
VL: QAVLTQPSSLSASPGASVSLTCTLRSGINVGAYRIYWYQQKPGSPPQFLLRYKSDSDKQQGSGVPSRFSGSRDASANAGILLISGLRSEDEADYYCAIWHSSAWVFGGGTQLTVLG
notes: Format as tested not clearly stated (sub-cloned to pFuse vector, expressed in HEK293T)
In the case of B1, in experiment [2], binding was characterised by a dissociation constant (Kd) of 0.26 nM, the off-rate constant (koff) is 6.4e-05 s⁻¹ and the kon stood at 250000 M⁻¹ s⁻¹.

B2: abN48 Fab (Fab, V domains shown)
VH: QVQLVQSGAEVKKPGSSVKVSCKASGGTLSSYAISWVRQAPGQGPEWMGWINPNSGGTNYAQKFQGRVTMTRDTSISTAYMELSRLRPDDTAVYYCASGYCSSTSCYDYWGQGTLVTVSS
VL: QAVLTQPSSLSASPGASVSLTCTLRSGINVGAYRIYWYQQKPGSPPQFLLRYKSDSDKQQGSGVPSRFSGSRDASANAGILLISGLRSEDEADYYCAIWHSSAWVFGGGTQLTVLG
notes: also called abN48 (Fab form); Fab form of abN48-IgG1
Turning to B2, the values for the binding result with pepN9-19 and in the experiment with pepN48Δ9-19 were “binds” and “no binding”, respectively.

B3: abN48-4 (antibody, V domains shown)
VH: QVQLVQSGAEVKKPGSSVKVSCKASGGTLSSYAISWVRQAPGQGPEWMGWINPNSGGTNYAQKFQGRVTMTRDTSISTAYMELSRLRPDDTAVYYCASGYCNRTRCYDHWGQGTLVTVSS
VL: QAVLTQPSSLSASPGASVSLTCTLRSGINVGAYRIYWYQQKPGSPPQFLLRYKSDSDKQQGSGVPSRFSGSRDASANAGILLISGLRSEDEADYYCAIWHSSAWVFGGGTQLTVLG
notes: format as tested not clearly stated
As to B3, in experiment [2], binding was characterised by a dissociation constant (Kd) of 0.031 nM, the koff was found to be 1.6e-05 s⁻¹ and the association rate constant (kon) worked out at 520000 M⁻¹ s⁻¹.

B4: abN48-6 (antibody, V domains shown)
VH: QVQLVQSGAEVKKPGSSVKVSCKASGGTLSSYAISWVRQAPGQGPEWMGWINPNSGGTNYAQKFQGRVTMTRDTSISTAYMELSRLRPDDTAVYYCASGYCSPSGCYVYWGQGTLVTVSS
VL: QAVLTQPSSLSASPGASVSLTCTLRSGINVGAYRIYWYQQKPGSPPQFLLRYKSDSDKQQGSGVPSRFSGSRDASANAGILLISGLRSEDEADYYCAIWHSSAWVFGGGTQLTVLG
notes: as for B3
In experiment [2], B4 gave an equilibrium dissociation constant (Kd) of 0.21 nM, an off-rate (koff) of 1.8e-05 s⁻¹ and an association rate constant (kon) of 85000 M⁻¹ s⁻¹.

B5: abN48-2 Fab (Fab, V domains shown)
VH: QVQLVQSGAEVKKPGSSVKVSCKASGGTLSSYAISWVRQAPGQGPEWMGWINPNSGGTNYAQKFQGRVTMTRDTSISTAYMELSRLRPDDTAVYYCASGYCSRTRCYDYWGQGTLVTVSS
VL: QAVLTQPSSLSASPGASVSLTCTLRSGINVGAYRIYWYQQKPGSPPQFLLRYKSDSDKQQGSGVPSRFSGSRDASANAGILLISGLRSEDEADYYCAIWHSSAWVFGGGTQLTVLG
notes: Made as abN48 Fab ('following a similar protocol'); also called abN48-2 (Fab form); Fab form of abN48-2-IgG2 (so in the source)
B5: the binding result is “binds” with pepN9-19 and “no binding” with pepN48Δ9-19.

B6: abN48-5 (antibody, V domains shown)
VH: QVQLVQSGAEVKKPGSSVKVSCKASGGTLSSYAISWVRQAPGQGPEWMGWINPNSGGTNYAQKFQGRVTMTRDTSISTAYMELSRLRPDDTAVYYCASGYCSRFNCKDYWGQGTLVTVSS
VL: QAVLTQPSSLSASPGASVSLTCTLRSGINVGAYRIYWYQQKPGSPPQFLLRYKSDSDKQQGSGVPSRFSGSRDASANAGILLISGLRSEDEADYYCAIWHSSAWVFGGGTQLTVLG
notes: as for B3
In experiment [2], B6 came in with a Kd of no more than 0.0012 nM, a koff of no more than 1e-06 s⁻¹ and an association rate constant (kon) of 810000 M⁻¹ s⁻¹.

B7: abN48-7 (antibody, V domains shown)
VH: QVQLVQSGAEVKKPGSSVKVSCKASGGTLSSYAISWVRQAPGQGPEWMGWINPNSGGTNYAQKFQGRVTMTRDTSISTAYMELSRLRPDDTAVYYCASGYCGRARCTSFWGQGTLVTVSS
VL: QAVLTQPSSLSASPGASVSLTCTLRSGINVGAYRIYWYQQKPGSPPQFLLRYKSDSDKQQGSGVPSRFSGSRDASANAGILLISGLRSEDEADYYCAIWHSSAWVFGGGTQLTVLG
notes: as for B3
In experiment [2], B7 gave a Kd of 0.012 nM, a koff of 0.00015 s⁻¹ and an association rate constant (kon) of 1.3e+07 M⁻¹ s⁻¹.

B8: abN48-8 (antibody, V domains shown)
VH: QVQLVQSGAEVKKPGSSVKVSCKASGGTLSSYAISWVRQAPGQGPEWMGWINPNSGGTNYAQKFQGRVTMTRDTSISTAYMELSRLRPDDTAVYYCASGYCSRSRCYDYWGQGTLVTVSS
VL: QAVLTQPSSLSASPGASVSLTCTLRSGINVGAYRIYWYQQKPGSPPQFLLRYKSDSDKQQGSGVPSRFSGSRDASANAGILLISGLRSEDEADYYCAIWHSSAWVFGGGTQLTVLG
notes: as for B3
In experiment [2], B8 showed a Kd of 0.016 nM, a koff of 2e-05 s⁻¹ and a kon of 1.2e+06 M⁻¹ s⁻¹.

B9: abN48-3 (antibody, V domains shown)
VH: QVQLVQSGAEVKKPGSSVKVSCKASGGTLSSYAISWVRQAPGQGPEWMGWINPNSGGTNYAQKFQGRVTMTRDTSISTAYMELSRLRPDDTAVYYCASGYCSFAICFDSWGQGTLVTVSS
VL: QAVLTQPSSLSASPGASVSLTCTLRSGINVGAYRIYWYQQKPGSPPQFLLRYKSDSDKQQGSGVPSRFSGSRDASANAGILLISGLRSEDEADYYCAIWHSSAWVFGGGTQLTVLG
notes: as for B3
In experiment [2], B9 had a dissociation constant Kd of 0.63 nM, a koff of 0.00016 s⁻¹ and a kon of 360000 M⁻¹ s⁻¹.
